Values quoted from earlier work in publication PMC3634864.

Biological target: Hemoglobin (Homo sapiens) (UniProt P69905)
UniProt P69905, sequence (P69905 2-142, chain 1 of 2): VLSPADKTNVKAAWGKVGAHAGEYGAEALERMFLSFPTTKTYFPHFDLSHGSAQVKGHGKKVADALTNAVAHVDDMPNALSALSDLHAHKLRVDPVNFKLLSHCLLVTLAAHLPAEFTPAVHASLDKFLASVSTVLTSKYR
UniProt P69905, sequence (P68871 2-147, chain 2 of 2, further chain): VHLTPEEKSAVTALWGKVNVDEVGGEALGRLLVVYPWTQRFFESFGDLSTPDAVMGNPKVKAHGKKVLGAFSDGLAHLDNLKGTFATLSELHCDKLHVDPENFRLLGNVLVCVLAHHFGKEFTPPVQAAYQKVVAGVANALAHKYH

**Q.** For Haptoglobin (from UniProt P00738), which Kd is on record?
**A.** < 1 pM
